Legend:
[1] = target: T1, Gremlin-1 (GREM1), recombinant human (Homo sapiens, UniProt O60565 O60565:25-184); test: ELONA; room temperature, PBS; biotinylated aptamer, streptavidin-HRP; conditions: label: biotin
T1 sequence: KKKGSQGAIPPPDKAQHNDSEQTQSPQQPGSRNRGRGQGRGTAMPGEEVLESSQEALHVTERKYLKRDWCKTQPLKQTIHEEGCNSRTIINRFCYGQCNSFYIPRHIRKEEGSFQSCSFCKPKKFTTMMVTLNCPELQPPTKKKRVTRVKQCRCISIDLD

Serum albumin (HSA) = Serum albumin (HSA) (Homo sapiens, UniProt P02768 P02768:25-609); test: ELONA; plate coated with 30 nM HSA; figure legend says bovine serum albumin; conditions: tags: Sigma Aldrich; label: biotin
Serum albumin (HSA), sequence (P02768 25-609, one chain of several): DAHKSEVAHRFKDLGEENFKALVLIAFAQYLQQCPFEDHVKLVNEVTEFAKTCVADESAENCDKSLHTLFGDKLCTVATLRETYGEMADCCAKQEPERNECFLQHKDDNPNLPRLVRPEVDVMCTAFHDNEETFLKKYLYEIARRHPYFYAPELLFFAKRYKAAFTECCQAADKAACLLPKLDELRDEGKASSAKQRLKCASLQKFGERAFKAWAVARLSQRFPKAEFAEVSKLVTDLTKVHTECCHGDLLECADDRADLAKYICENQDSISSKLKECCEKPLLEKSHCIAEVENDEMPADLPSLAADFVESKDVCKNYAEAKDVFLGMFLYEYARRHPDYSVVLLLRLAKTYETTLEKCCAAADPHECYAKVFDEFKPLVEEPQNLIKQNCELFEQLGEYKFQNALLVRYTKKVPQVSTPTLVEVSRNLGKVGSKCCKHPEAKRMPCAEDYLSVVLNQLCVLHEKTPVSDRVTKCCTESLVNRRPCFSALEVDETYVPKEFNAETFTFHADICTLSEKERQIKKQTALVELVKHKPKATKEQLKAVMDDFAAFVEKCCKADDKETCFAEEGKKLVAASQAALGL
Method: For ELONA, wells of a 96-well High Binding microplate (Nunc MaxiSorp) were left uncoated or coated with exosomes (4 μg) o.n. All the subsequent steps were performed at room temperature. Following incubation, the plate was blocked with 300 μl 3% BSA (AppliChem) in PBS for 2 hours and incubated with 100 μL biotinylated aptamers (Tebu-bio), dissolved in PBS for 2 hours. Then the plate was washed three times with 300 μl PBS and streptavidin-HPR dissolved in 100 μl PBS (Sigma Aldrich) was added with dilution 1:10000. After 1 hour of incubation, the plate was washed three times before the addition of the TMB developing solution. The reaction was stopped with 0.16 M sulfuric acid and signal strength was analyzed by measuring absorbance at 450 nm with a microplate reader (Thermo Scientific).
MDA-MB-231-derived exosomes and increasing concentrations of aptamer (ex-50.T or control) were used to calculate the binding affinity. The Kd was determined by means of GraphPad Prism. To verify the binding on human serum alumina (HSA), the plate coating was performed at 30 nM HSA (Sigma Aldrich).

B1: ex-50.T (ssRNA)
RNA: UGUGGCAGUUAAGAAUAGAUCUUCGCUGCGAUU
modifications: 2'-F pyrimidines (2'-F-C, 2'-F-U; per library chemistry)
- Kd [1]: 37.7 nM
- binding result (Serum albumin (HSA)): no binding

Source: patent US20230227832, “ANTICANCER APTAMERS AND USES THEREOF” (CONSIGLIO NAZIONALE DELLE RICERCHE, published 2023)
